Source: the supplement of paper PMC10126150
± gives the standard deviation of the averaged measurements.

Tested on: ATP
Assay: switch fluorescence ratio, 500 uM ATP over buffer (Cy3 cluster intensity, sum of 5 cycles each) (fold (ratio)); higher = stronger signal-on switching upon ATP binding; sequences stand for … in TCGTCGGCAGCGTCAGATGTGTATAAGAGACAGTTTTTTTTTTTTTTTTTTTTTTTTT…TC
Conditions: aptamer strand: ATP DNA aptamer (quencher-CACCTGGGGGAGTATTGCGGAGGAAGG + anchor), 100 nM annealed; ATP concentration: 500 uM
Outline: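 Cy3-labelled switching-strand clusters on a modified Illumina MiSeq flow-cell were annealed to 100 nM quencher-labelled ATP aptamer, imaged in selection buffer, then imaged after 15 min with 500 uM ATP at 22 °C. Five buffer/ATP cycles ran, with NaOH stripping and re-annealing between them. The fluorescence ratio is summed target-cycle over summed buffer-cycle Cy3 intensity per cluster, averaged per switch-domain sequence. Clusters outside 100-1000 RFU were excluded.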
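Also: ATP exposure 15 min at 22 °C before imaging.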

Sequence	switch fluorescence ratio
TAGATGGGAT	0.976 ± 0.014
TAGATGGGGA	0.977 ± 0.035
TAGATTCTGT	0.9951 ± 0.0032
TAGATTGTGT	0.998 ± 0.027
TAGATTTGGG	0.967 ± 0.0089
TAGATTTT	0.9953 ± 0.007
TAGCAATTAT	1.81 ± 0.085
TAGCAATTTG	1.05 ± 0.053
TAGCAGTGGG	0.973 ± 0.015
TAGCCCTGCT	1.033 ± 0.0087
TAGCCGATGG	0.994 ± 0.027
TAGCCTAGTT	0.963 ± 0.022
TAGCGCAATT	1.74 ± 0.22
TAGCGGAAAA	1.018 ± 0.0026
TAGCGGAGGC	1.03 ± 0.03
TAGCGGGCTT	0.983 ± 0.025
TAGCGTAAAT	0.9913 ± 0.0049
TAGCTAGTAT	1.63 ± 0.95
TAGCTCGGGG	1.03 ± 0.035
TAGCTGAGGG	0.997 ± 0.015
TAGCTGAGTG	0.985 ± 0.043
TAGCTTATAA	1.08 ± 0.024
TAGCTTGGCA	0.991 ± 0.048
TAGCTTGGTG	1.04 ± 0.015
TAGCTTGTCA	0.9884 ± 0.0065
TAGCTTGTTT	1.02 ± 0.022

Sequence	switch fluorescence ratio
TAGCTTTGGG	1 ± 0.011
TAGGAAGGAG	0.98 ± 0.06
TAGGAAGGCG	1.01 ± 0.047
TAGGAATGTT	0.9659 ± 0.0022
TAGGACGTGG	0.988 ± 0.061
TAGGACTCGG	0.989 ± 0.024
TAGGAGGAGT	0.951 ± 0.017
TAGGAGGGAG	1.02 ± 0.031
TAGGAGGGGC	0.958 ± 0.12
TAGGAGTAAT	1.012 ± 0.0047
TAGGAGTGAA	0.9792 ± 0.0021
TAGGATACGG	0.995 ± 0.012
TAGGATGTGT	1 ± 0.0056
TAGGATTGCT	1 ± 0.021
TAGGATTTTG	0.985 ± 0.033
TAGGCAGAGT	1.01 ± 0.023
TAGGCATCGT	0.969 ± 0.019
TAGGCGGTGT	1.01 ± 0.012
TAGGCGTGCT	0.987 ± 0.013
TAGGCTGCGA	1.04 ± 0.025
TAGGCTTAGG	1.029 ± 0.0019
TAGGGAAAAG	0.99 ± 0.013
TAGGGAAATA	1 ± 0.051
TAGGGACGGG	1.07 ± 0.087
TAGGGAGAAA	1.46 ± 0.64
TAGGGAGGCG	0.962 ± 0.063

Sequence	switch fluorescence ratio
TAGGGCACA	1.1 ± 0.057
TAGGGCCGTG	0.977 ± 0.0059
TAGGGCGCGG	0.9403 ± 0.0034
TAGGGCGGGA	0.946 ± 0.052
TAGGGCTGGC	1 ± 0.08
TAGGGCTGTA	0.993 ± 0.049
TAGGGGAATC	0.992 ± 0.02
TAGGGGAATG	1.02 ± 0.098
TAGGGGAATT	0.967 ± 0.039
TAGGGGAGC	1.01 ± 0.045
TAGGGGAGCA	1.01 ± 0.044
TAGGGGATAT	0.964 ± 0.025
TAGGGGCAGG	1.07 ± 0.022
TAGGGGCCGT	1.02 ± 0.05
TAGGGGCCTA	0.995 ± 0.011
TAGGGGCGTG	0.998 ± 0.039
TAGGGGGAAT	1.01 ± 0.054
TAGGGGGATG	0.997 ± 0.028
TAGGGGGCAT	1.01 ± 0.043
TAGGGGGCGG	0.988 ± 0.03
TAGGGGGCTC	0.959 ± 0.02
TAGGGGGGAA	1 ± 0.023
TAGGGGGGCC	0.9669 ± 0.0015
TAGGGGGGGA	1.01 ± 0.018
TAGGGGGGGT	1 ± 0.031
TAGGGGGT	0.985 ± 0.027

Sequence	switch fluorescence ratio
TAGGGGGTAA	0.997 ± 0.039
TAGGGGGTCG	0.971 ± 0.042
TAGGGGGTTC	1.01 ± 0.027
TAGGGGTAGG	1.02 ± 0.021
TAGGGGTTAG	0.9808 ± 0.0098
TAGGGGTTCT	1.01 ± 0.061
TAGGGGTTGG	0.987 ± 0.03
TAGGGGTTTG	0.979 ± 0.027
TAGGGTAAAT	0.985 ± 0.012
TAGGGTAGTT	1.02 ± 0.071
TAGGGTCATT	0.999 ± 0.029
TAGGGTCTCT	0.989 ± 0.012
TAGGGTGCTA	1 ± 0.019
TAGGGTGTCA	1.03 ± 0.047
TAGGTAAATT	1.02 ± 0.054
TAGGTACTGG	1.04 ± 0.014
TAGGTAGGTT	1.015 ± 0.0086
TAGGTAGTCT	1.02 ± 0.015
TAGGTATGGC	0.976 ± 0.012
TAGGTATGGG	0.9955 ± 0.002
TAGGTCCCGG	0.996 ± 0.032
TAGGTCGGCC	1.004 ± 0.0061
TAGGTCGGGT	0.984 ± 0.035
TAGGTCTAGT	0.98706 ± 0.0005
TAGGTGCAGG	1.08 ± 0.068
TAGGTGGACT	1.01 ± 0.042

Sequence	switch fluorescence ratio
TAGGTGGGCA	0.987 ± 0.054
TAGGTGGGCT	1.011 ± 0.0064
TAGGTTCTAA	1.06 ± 0.079
TAGGTTGCAA	0.9665 ± 0.007
TAGGTTGGTG	1 ± 0.036
TAGGTTTGCC	1.08 ± 0.021
TAGGTTTTGT	1 ± 0.044
TAGTAATTTG	1.01 ± 0.019
TAGTAGAGGT	1 ± 0.043
TAGTAGGGGT	1.002 ± 0.0061
TAGTAGGTAG	0.985 ± 0.025
TAGTAGGTTG	0.979 ± 0.04
TAGTATGGGG	0.976 ± 0.045
TAGTATGTTT	1.004 ± 0.0061
TAGTATTTTT	0.977 ± 0.023
TAGTCTAGTG	0.9812 ± 0.0066
TAGTCTTAGG	0.973 ± 0.049
TAGTGAAGGC	0.988 ± 0.013
TAGTGAAGTC	1.02 ± 0.073
TAGTGATCTT	0.997 ± 0.0066
TAGTGCACGG	0.995 ± 0.039
TAGTGGCAGC	0.9797 ± 0.0053
TAGTGGCTGG	1 ± 0.026
TAGTGGGATT	0.994 ± 0.016
TAGTGGTGGG	0.9844 ± 0.0089
TAGTGTATTG	1.01 ± 0.012

Sequence	switch fluorescence ratio
TAGTTAAATC	1 ± 0.042
TAGTTAATCA	0.991 ± 0.01
TAGTTAATTG	0.987 ± 0.067
TAGTTACGGT	1.05 ± 0.064
TAGTTACTTT	1.02 ± 0.021
TAGTTAGACG	1.11 ± 0.1
TAGTTATCGA	0.997 ± 0.0069
TAGTTCGGTT	1.01 ± 0.016
TAGTTCTGGG	0.9428 ± 0.0012
TAGTTGAAGG	0.9942 ± 0.0051
TAGTTGACAA	0.99 ± 0.0024
TAGTTGACCC	1.01 ± 0.053
TAGTTGCTCA	0.993 ± 0.046
TAGTTGGGAT	0.991 ± 0.029
TAGTTGGGCA	0.987 ± 0.026
TAGTTGTCCG	1.02 ± 0.12
TAGTTGTGGT	0.99 ± 0.034
TAGTTGTTTA	0.985 ± 0.046
TAGTTTTCAG	1.02 ± 0.047
TAGTTTTGAA	0.997 ± 0.072
TAGTTTTGGA	0.988 ± 0.01
TAGTTTTTAG	0.981 ± 0.018
TAGTTTTTCC	1.03 ± 0.037
